Measurements reported in patent US20090311784A1 (WISCONSIN ALUMNI RESEARCH FOUNDATION, published 2009).

Tests used:
[1] = target: T1, human ribonuclease inhibitor (human, UniProt P13489 2-461); assay: calculated from Kd: ΔΔG = -RTln(Kd wild-type/Kd variant)
T1 construct: also called hRI; hR1
T1 sequence: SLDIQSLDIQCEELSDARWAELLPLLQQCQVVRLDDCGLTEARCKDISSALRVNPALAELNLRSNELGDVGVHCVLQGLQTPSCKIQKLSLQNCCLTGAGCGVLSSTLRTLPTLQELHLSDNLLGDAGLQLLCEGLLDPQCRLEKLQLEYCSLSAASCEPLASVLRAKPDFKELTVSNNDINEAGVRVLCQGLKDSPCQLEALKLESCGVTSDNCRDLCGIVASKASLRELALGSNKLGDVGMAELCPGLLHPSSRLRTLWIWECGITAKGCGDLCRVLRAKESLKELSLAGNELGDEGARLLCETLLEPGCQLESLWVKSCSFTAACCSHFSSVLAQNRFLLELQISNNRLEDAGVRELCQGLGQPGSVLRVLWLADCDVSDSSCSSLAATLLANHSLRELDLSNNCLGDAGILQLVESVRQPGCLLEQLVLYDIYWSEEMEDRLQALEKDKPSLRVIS
Description: (§1) Values for Kd were obtained by nonlinear least-squares analysis of the binding isotherm using the program […] 5.5 (Red Rock Software, Salt Lake City, Utah).

[2] = target: T1, human ribonuclease inhibitor; assay: ΔΔG of R39D/N67D/N88A/G89D/R91D RNase 1 minus ΔΔG of this variant
Description: as §1

[3] = target: T1, human ribonuclease inhibitor; assay: fluorescence competition assay with fluorescein-labeled G88R RNase A for hRI
Description: as §1
Data points are the mean (±SE) of at least three separate measurements.

[4] = target: T1, human ribonuclease inhibitor; assay: constant used in the fluorescence competition assay
Description: as §1

B1: G38R/R39G/N67R/N88R RNase 1 (enzyme)
chain: KESRAKKFQRQHMDSDSSPSSSSTYCNQMMRRRNMTQRGCKPVNTFVHEPLVDVQNVCFQEKVTCKRGQGNCYKSNSSMHITDCRLTRGSRYPNCAYRTSPKERHIIVACEGSPYVPVHFDASVEDST
notes: Made by site-directed mutagenesis and purified like wild-type RNase 1
ΔΔG [1]: 3 kcal/mol

B2: R39D/N67D/G89D/R91D RNase 1 (enzyme)
chain: KESRAKKFQRQHMDSDSSPSSSSTYCNQMMRRRNMTQGDCKPVNTFVHEPLVDVQNVCFQEKVTCKDGQGNCYKSNSSMHITDCRLTNDSDYPNCAYRTSPKERHIIVACEGSPYVPVHFDASVEDST
ΔΔΔG [2]: 0.4 kcal/mol
ΔΔG [1]: 9.1 kcal/mol
Kd [3]: 1000 nM

B3: R39D/N67D/N88A/G89D RNase 1 (enzyme)
chain: KESRAKKFQRQHMDSDSSPSSSSTYCNQMMRRRNMTQGDCKPVNTFVHEPLVDVQNVCFQEKVTCKDGQGNCYKSNSSMHITDCRLTADSRYPNCAYRTSPKERHIIVACEGSPYVPVHFDASVEDST
ΔΔΔG [2]: 2.8 kcal/mol
ΔΔG [1]: 6.7 kcal/mol

B4: R39L/N67L/N88A/G89L/R91L RNase 1 (enzyme)
chain: KESRAKKFQRQHMDSDSSPSSSSTYCNQMMRRRNMTQGLCKPVNTFVHEPLVDVQNVCFQEKVTCKLGQGNCYKSNSSMHITDCRLTALSLYPNCAYRTSPKERHIIVACEGSPYVPVHFDASVEDST
ΔΔΔG [2]: 2.4 kcal/mol
ΔΔG [1]: 7.1 kcal/mol
Kd [3]: 30 nM

B5: R39D/N67D/N88A/R91D RNase 1 (enzyme)
chain: KESRAKKFQRQHMDSDSSPSSSSTYCNQMMRRRNMTQGDCKPVNTFVHEPLVDVQNVCFQEKVTCKDGQGNCYKSNSSMHITDCRLTAGSDYPNCAYRTSPKERHIIVACEGSPYVPVHFDASVEDST
ΔΔΔG [2]: 1.1 kcal/mol
ΔΔG [1]: 8.4 kcal/mol

B6: N67D/N88A/G89D/R91D RNase 1 (enzyme)
chain: KESRAKKFQRQHMDSDSSPSSSSTYCNQMMRRRNMTQGRCKPVNTFVHEPLVDVQNVCFQEKVTCKDGQGNCYKSNSSMHITDCRLTADSDYPNCAYRTSPKERHIIVACEGSPYVPVHFDASVEDST
ΔΔΔG [2]: 2.2 kcal/mol
ΔΔG [1]: 7.3 kcal/mol

B7: R39D/N88A/G89D/R91D RNase 1 (enzyme)
chain: KESRAKKFQRQHMDSDSSPSSSSTYCNQMMRRRNMTQGDCKPVNTFVHEPLVDVQNVCFQEKVTCKNGQGNCYKSNSSMHITDCRLTADSDYPNCAYRTSPKERHIIVACEGSPYVPVHFDASVEDST
ΔΔΔG [2]: 1.9 kcal/mol
ΔΔG [1]: 7.6 kcal/mol

B8: R39D/N67D/N88A/G89D/R91D RNase 1 (enzyme)
chain: KESRAKKFQRQHMDSDSSPSSSSTYCNQMMRRRNMTQGDCKPVNTFVHEPLVDVQNVCFQEKVTCKDGQGNCYKSNSSMHITDCRLTADSDYPNCAYRTSPKERHIIVACEGSPYVPVHFDASVEDST
ΔΔG [1]: 9.5 kcal/mol

B9: fluorescein-labeled G88R RNase A (enzyme)
chain: KETAAAKFERQHMDSSTSCASSSNYCNQMMKSRNLTKDRCKPVNTFVHESLADVQAVCSQKNVACKNGQTNCYQSYSTMSITDCRETRSSKYPNCAYKTTQANKHIIVACEGNPYVPVHFDASV
modifications: fluorescein on Cys19 (F*-A19C)
notes: also called F*-A19C G88R RNase A; fluorescently-labeled G88R RNase A
Kd [4]: 1.4 nM
